Read-outs that look alike come from different tables or passages of the source.
T1: 4H683-bN
T1 chain: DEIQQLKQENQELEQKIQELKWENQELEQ

T2: 4H780-bN
T2 chain: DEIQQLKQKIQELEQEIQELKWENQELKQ

T3: 4H953-bN
T3 chain: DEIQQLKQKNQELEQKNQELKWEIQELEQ

T4: 4H797-bN
T4 chain: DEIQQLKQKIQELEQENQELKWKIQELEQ

T5: 4H968-bN
T5 chain: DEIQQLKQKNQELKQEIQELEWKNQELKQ

T6: 4H575-bN
T6 chain: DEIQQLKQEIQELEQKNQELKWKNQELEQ

T7: 4H918-bN
T7 chain: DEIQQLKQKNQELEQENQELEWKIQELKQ

T8: 4H855-bN
T8 chain: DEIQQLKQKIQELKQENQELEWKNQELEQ

T9: 4H457-bN
T9 chain: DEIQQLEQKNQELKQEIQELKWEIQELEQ

T10: 4H754-bN
T10 chain: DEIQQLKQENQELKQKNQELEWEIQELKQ

T11: 4H3591-AA
T11 chain: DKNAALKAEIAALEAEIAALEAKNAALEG

T12: 4H3939-AA
T12 chain: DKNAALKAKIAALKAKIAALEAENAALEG

T13: 4H656-AA
T13 chain: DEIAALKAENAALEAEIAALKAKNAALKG

T14: 4H3920-AA
T14 chain: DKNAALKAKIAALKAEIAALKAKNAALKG

T15: 4H391-AA
T15 chain: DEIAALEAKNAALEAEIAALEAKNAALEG

T16: 4H3102-AA
T16 chain: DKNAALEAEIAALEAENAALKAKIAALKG

T17: 4H3709-AA
T17 chain: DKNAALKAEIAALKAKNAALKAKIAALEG

T18: 4H428-AA
T18 chain: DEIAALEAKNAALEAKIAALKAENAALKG

T19: 4H3029-AA
T19 chain: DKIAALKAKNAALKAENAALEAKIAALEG

T20: 4H675-AA
T20 chain: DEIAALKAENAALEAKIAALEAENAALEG

T21: 4H3666-AA
T21 chain: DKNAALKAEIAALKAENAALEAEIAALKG

T22: 4H3066-AA
T22 chain: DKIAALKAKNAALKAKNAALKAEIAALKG

T23: 4H3628-AA
T23 chain: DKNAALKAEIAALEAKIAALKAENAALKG

T24: 4H971-AA
T24 chain: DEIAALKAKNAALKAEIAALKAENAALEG

T25: 4H3417-AA
T25 chain: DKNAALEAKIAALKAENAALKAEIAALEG

T26: 4H3446-AA
T26 chain: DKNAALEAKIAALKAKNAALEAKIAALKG

T27: 4H3121-AA
T27 chain: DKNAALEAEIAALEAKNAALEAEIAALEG

T28: 4H478-AA
T28 chain: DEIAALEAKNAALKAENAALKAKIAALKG

T29: 4H497-AA
T29 chain: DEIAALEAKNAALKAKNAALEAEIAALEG

T30: 4H797-bA
T30 chain: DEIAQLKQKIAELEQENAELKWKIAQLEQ

T31: 4H953-bA
T31 chain: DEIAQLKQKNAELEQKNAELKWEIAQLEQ

T32: O8-bA
T32 chain: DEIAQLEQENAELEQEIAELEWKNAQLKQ

T33: 4H968-bA
T33 chain: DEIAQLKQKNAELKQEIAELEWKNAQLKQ

T34: 4H918-bA
T34 chain: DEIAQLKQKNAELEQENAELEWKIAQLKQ

T35: 4H683-bA
T35 chain: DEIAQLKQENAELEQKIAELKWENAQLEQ

T36: 4H855-bA
T36 chain: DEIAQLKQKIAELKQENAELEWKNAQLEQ

T37: 4H754-bA
T37 chain: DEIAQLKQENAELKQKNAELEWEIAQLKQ

T38: 4H780-bA
T38 chain: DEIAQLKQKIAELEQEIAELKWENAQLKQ

T39: 4H906-bN
T39 chain: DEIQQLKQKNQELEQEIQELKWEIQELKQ

T40: 4H591-bN
T40 chain: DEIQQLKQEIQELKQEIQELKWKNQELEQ

T41: 4H626-bN
T41 chain: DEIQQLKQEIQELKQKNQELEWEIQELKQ


Legend:
4H683-bN = molecular target: T1, 4H683-bN; assay: two-hybrid library CCNG1;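 note: natural log of median RNA to DNA barcode read ratio; higher means stronger binding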
4H780-bN = molecular target: T2, 4H780-bN; assay: two-hybrid library CCNG1;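 note: natural log of median RNA to DNA barcode read ratio; higher means stronger binding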
4H953-bN = molecular target: T3, 4H953-bN; assay: two-hybrid library CCNG1;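 note: natural log of median RNA to DNA barcode read ratio; higher means stronger binding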
4H797-bN = molecular target: T4, 4H797-bN; assay: two-hybrid library CCNG1;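 note: natural log of median RNA to DNA barcode read ratio; higher means stronger binding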
4H968-bN = molecular target: T5, 4H968-bN; assay: two-hybrid library CCNG1;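 note: natural log of median RNA to DNA barcode read ratio; higher means stronger binding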
4H575-bN = molecular target: T6, 4H575-bN; assay: two-hybrid library CCNG1;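 note: natural log of median RNA to DNA barcode read ratio; higher means stronger binding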
4H918-bN = molecular target: T7, 4H918-bN; assay: two-hybrid library CCNG1
4H855-bN = molecular target: T8, 4H855-bN; assay: two-hybrid library CCNG1
4H457-bN = molecular target: T9, 4H457-bN; assay: two-hybrid library CCNG1
4H754-bN = molecular target: T10, 4H754-bN; assay: two-hybrid library CCNG1
4H3591-AA = molecular target: T11, 4H3591-AA; assay: two-hybrid library CCmax; conditions: mean of both orientations
4H3939-AA = molecular target: T12, 4H3939-AA; assay: two-hybrid library CCmax; conditions: mean of both orientations
4H656-AA = molecular target: T13, 4H656-AA; assay: two-hybrid library CCmax; conditions: mean of both orientations
4H3920-AA = molecular target: T14, 4H3920-AA; assay: two-hybrid library CCmax; conditions: mean of both orientations
4H391-AA = molecular target: T15, 4H391-AA; assay: two-hybrid library CCmax; conditions: mean of both orientations
4H3102-AA = molecular target: T16, 4H3102-AA; assay: two-hybrid library CCmax; conditions: mean of both orientations
4H3709-AA = molecular target: T17, 4H3709-AA; assay: two-hybrid library CCmax; conditions: mean of both orientations
4H428-AA = molecular target: T18, 4H428-AA; assay: two-hybrid library CCmax; conditions: mean of both orientations
4H3029-AA = molecular target: T19, 4H3029-AA; assay: two-hybrid library CCmax
4H675-AA = molecular target: T20, 4H675-AA; assay: two-hybrid library CCmax; conditions: mean of both orientations
4H3666-AA = molecular target: T21, 4H3666-AA; assay: two-hybrid library CCmax; conditions: mean of both orientations
4H3066-AA = molecular target: T22, 4H3066-AA; assay: two-hybrid library CCmax; conditions: mean of both orientations
4H3628-AA = molecular target: T23, 4H3628-AA; assay: two-hybrid library CCmax; conditions: mean of both orientations
4H971-AA = molecular target: T24, 4H971-AA; assay: two-hybrid library CCmax; conditions: mean of both orientations
4H3417-AA = molecular target: T25, 4H3417-AA; assay: two-hybrid library CCmax; conditions: mean of both orientations
4H3446-AA = molecular target: T26, 4H3446-AA; assay: two-hybrid library CCmax; conditions: mean of both orientations
4H3121-AA = molecular target: T27, 4H3121-AA; assay: two-hybrid library CCmax; conditions: mean of both orientations
4H478-AA = molecular target: T28, 4H478-AA; assay: two-hybrid library CCmax; conditions: mean of both orientations
4H497-AA = molecular target: T29, 4H497-AA; assay: two-hybrid library CCmax; conditions: mean of both orientations
4H797-bA = molecular target: T30, 4H797-bA; assay: two-hybrid library CCNG1
4H953-bA = molecular target: T31, 4H953-bA; assay: two-hybrid library CCNG1
O8-bA = molecular target: T32, O8-bA; assay: two-hybrid library CCNG1
4H968-bA = molecular target: T33, 4H968-bA; assay: two-hybrid library CCNG1
4H918-bA = molecular target: T34, 4H918-bA; assay: two-hybrid library CCNG1
4H683-bA = molecular target: T35, 4H683-bA; assay: two-hybrid library CCNG1
4H855-bA = molecular target: T36, 4H855-bA; assay: two-hybrid library CCNG1
4H754-bA = molecular target: T37, 4H754-bA; assay: two-hybrid library CCNG1
4H780-bA = molecular target: T38, 4H780-bA; assay: two-hybrid library CCNG1
4H906-bN = molecular target: T39, 4H906-bN; assay: two-hybrid library CCNG1
4H591-bN = molecular target: T40, 4H591-bN; assay: two-hybrid library CCNG1
4H626-bN = molecular target: T41, 4H626-bN; assay: two-hybrid library CCNG1

interaction score (4H3591-AA) | interaction score (4H3939-AA) | interaction score (4H656-AA) | interaction score (4H3920-AA) | interaction score (4H391-AA) | interaction score (4H3102-AA) | interaction score (4H3709-AA) | interaction score (4H428-AA) | interaction score (4H675-AA) | interaction score (4H3666-AA) | interaction score (4H3066-AA) | interaction score (4H3628-AA) | interaction score (4H971-AA) | interaction score (4H3417-AA) | interaction score (4H3446-AA) | interaction score (4H3121-AA) | interaction score (4H478-AA) | interaction score (4H497-AA) | Binder | also measured
 |  |  |  |  |  |  |  |  |  |  |  |  |  |  |  |  |  | DEIQQLEQKNQELKQEIQELKWEIQELEQ [4H457-bN] | interaction score (4H683-bN): -0.914; interaction score (4H780-bN): -1.08; interaction score (4H953-bN): -0.785; interaction score (4H797-bN): -1.31; interaction score (4H968-bN): -1.86; interaction score (4H575-bN): -0.989; interaction score (4H918-bN): -1.24; interaction score (4H855-bN): -2.15; interaction score (4H457-bN): -1.6; interaction score (4H754-bN): -0.487
-1.47 | -1.71 | -0.731 | -1.73 | 1.52 | -0.548 | -1.43 | -0.913 | -0.186 | -1.01 | -1.81 | -1.99 | -0.98 | -1.68 | -1.73 | 1.28 | -1.87 | -1.91 | DKIAALKAKNAALEAKIAALKAKNAALEG [4H2991-AA] | interaction score (4H3029-AA; mean of both orientations): -1.76
 |  |  |  |  |  |  |  |  |  |  |  |  |  |  |  |  |  | DEIAQLKQENAELEQKIAELKWENAQLEQ [4H683-bA] | interaction score (4H797-bA): -1.06; interaction score (4H953-bA): -1.67; interaction score (O8-bA): -2.64; interaction score (4H968-bA): 2.25; interaction score (4H918-bA): -0.784; interaction score (4H683-bA): -0.189; interaction score (4H855-bA): -0.474; interaction score (4H754-bA): -0.665; interaction score (4H780-bA): -1.43
 |  |  |  |  |  |  |  |  |  |  |  |  |  |  |  |  |  | DEIQQLKQEIQELKQEIQELKWKNQELEQ [4H591-bN] | interaction score (4H906-bN): -1.13; interaction score (4H591-bN): 1.27; interaction score (4H626-bN): -0.933
-1.37 | -1.98 | -1.3 | -1.69 | -1.42 | 0.23 | -1.34 | -1.74 | -1.45 | -1.86 | -1.01 | -1.87 | -2.45 | -1.74 | -1.79 | -1.89 | 1.48 | -0.722 | DKIAALKAKNAALKAENAALEAKIAALEG [4H3029-AA] | interaction score (4H3029-AA): -0.965
